Source: paper PMC11831459, “Lactylation of Histone H3k18 and Egr1 Promotes Endothelial Glycocalyx Degradation in Sepsis‐Induced Acute Lung Injury” (Advanced Science, 2024)

Molecular target: T1, His-EGR1 (mouse, UniProt P08046 1-533)
T1 construct: Early growth response protein 1 (EGR1), mouse; plasmid pET28a-EGR1; also called His-tagged EGR1; source: E. coli BL21(DE3), purified (Ni-NTA)
Assay: pull-down; GST pull-down with affinity purified proteins; GST bait on GSH magnetic beads (BersinBio GST-pull down kit), His-EGR1 as prey; SDS-PAGE or Western blot
Details: both partners purified

T1 sequence (P08046 whole entry): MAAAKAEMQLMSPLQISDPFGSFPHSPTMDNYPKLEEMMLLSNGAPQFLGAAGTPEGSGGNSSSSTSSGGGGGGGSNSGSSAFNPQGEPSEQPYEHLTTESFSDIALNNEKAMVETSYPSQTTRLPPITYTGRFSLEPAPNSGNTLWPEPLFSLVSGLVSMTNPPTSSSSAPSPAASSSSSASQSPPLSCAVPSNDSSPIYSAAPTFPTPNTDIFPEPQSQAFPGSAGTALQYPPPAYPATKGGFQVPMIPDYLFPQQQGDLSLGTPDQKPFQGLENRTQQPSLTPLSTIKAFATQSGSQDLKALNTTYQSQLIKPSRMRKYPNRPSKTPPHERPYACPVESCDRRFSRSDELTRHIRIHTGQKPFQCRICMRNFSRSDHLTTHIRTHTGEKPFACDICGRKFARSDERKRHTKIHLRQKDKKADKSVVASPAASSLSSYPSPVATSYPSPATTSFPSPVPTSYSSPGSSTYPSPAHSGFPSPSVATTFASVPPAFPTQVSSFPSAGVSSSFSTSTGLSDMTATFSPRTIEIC

binding result: binds
B1: GST-KAT2B-WT (enzyme, mouse, UniProt Q9JHD1 1-813, looked up)
chain: MAEAGGAGSPALPPAPPHGSPRTLATAAGSSASCGPATAVAAAGTAEGPGGGGSARIAVKKAQLRSAPRAKKLEKLGVYSACKAEESCKCNGWKNPNPSPTPPRGDLQQIIVSLTESCRSCSHALAAHVSHLENVSEEEMDRLLGIVLDVEYLFTCVHKEEDADTKQVYFYLFKLLRKSILQRGKPVVEGSLEKKPPFEKPSIEQGVNNFVQYKFSHLPSKERQTTIELAKMFLNRINYWHLEAPSQRRLRSPNDDISGYKENYTRWLCYCNVPQFCDSLPRYETTKVFGRTLLRSVFTIMRRQLLEQARQEKDKLPLEKRTLILTHFPKFLSMLEEEVYSQNSPIWDQDFLSASSRTSPLGIQTVISPPVTGTALFSSNSTSHEQINGGRTSPGCRGSSGLEANPGEKRKMNNSHAPEEAKRSRVMGDIPVELINEVMSTITDPAGMLGPETNFLSAHSARDEAARLEERRGVIEFHVVGNSLNQKPNKKILMWLVGLQNVFSHQLPRMPKEYITRLVFDPKHKTLALIKDGRVIGGICFRMFPSQGFTEIVFCAVTSNEQVKGYGTHLMNHLKEYHIKHEILNFLTYADEYAIGYFKKQGFSKEIKIPKTKYVGYIKDYEGATLMGCELNPQIPYTEFSVIIKKQKEIIKKLIERKQAQIRKVYPGLSCFKDGVRQIPIESIPGIRETGWKPSGKEKSKEPKDPEQLYSTLKNILQQVKNHPNAWPFMEPVKRTEAPGYYEVIRFPMDLKTMSERLRNRYYVSKKLFMADLQRVFTNCKEYNPPESEYYKCASILEKFFFSKIKEAGLIDK
notes: Histone acetyltransferase KAT2B, mouse; plasmid pGEX-4T-1-KAT2B; source: E. coli BL21(DE3), purified (glutathione column)
